Measurements as given in IntAct's records for PubMed 20924357.

B1: Cryptic beta-glucoside bgl operon antiterminator (Escherichia coli (strain K12)), P11989 (parent)
chain: MNMQITKILNNNVVVVIDDQQREKVVMGRGIGFQKRAGERINSSGIEKEYALSSHELNGRLSELLSHIPLEVMATCDRIISLAQERLGKLQDSIYISLTDHCQFAIKRFQQNVLLPNPLLWDIQRLYPKEFQLGEEALTIIDKRLGVQLPKDEVGFIAMHLVSAQMSGNMEDVAGVTQLMREMLQLIKFQFSLNYQEESLSYQRLVTHLKFLSWRILEHASINDSDESLQQAVKQNYPQAWQCAERIAIFIGLQYQRKISPAEIMFLAINIERVRKEH

Variants of: B1
Settings: with pthp_ecoli ptsH

Row | effect of a mutation on the interaction | Variant
1 | increasing interaction | D100N

Variants of: B1
Settings: with pthp_ecoli ptsH
Remark: another data set of the same source

Row | effect of a mutation on the interaction | Variant
2 | increasing interaction | H160Y

Variants of: B1
Settings: with pthp_ecoli ptsH
Remark: another data set of the same source

Row | effect of a mutation on the interaction | Variant
3 | increasing interaction | H208R

Variants of: B1
Settings: with pt1_ecoli ptsI

Row | effect of a mutation on the interaction | Variant
4 | increasing interaction | H208R

Variants of: B1
Settings: with pt1_ecoli ptsI
Remark: another data set of the same source

Row | effect of a mutation on the interaction | Variant
5 | decreasing interaction | H208R
